Experiments:
[1] = target: 重组Grb2蛋白 (recombinant Grb2 protein) (UniProt P62993); test: ELISA, recombinant Grb2 coated, antibody 100 ng/mL, goat anti-mouse IgG Fc-HRP secondary (does not detect human IgG)
[2] = target: 重组Grb2蛋白 (recombinant Grb2 protein) (UniProt P62993); test: ELISA, recombinant Grb2 coated, antibody 100 ng/mL, goat anti-human IgG Fc-HRP secondary

OD490 [1]: 0.073 | OD490 [2]: 0.073
Substance: 人IgG1 (irrelevant human IgG1 control antibody)
